The values that follow come from PMC7293249 (Nature Communications, 2020).

Test [1] has as its target T1, monkey activated protein C (Macaca sp. (monkey plasma, species not …, UniProt A0A1D5QSH6)). In words: cell-based or functional assay.
In the next test the target is human FIXa (Homo sapiens, UniProt P00740). Briefly: ELISA; data not shown; human FIIa, FVIIa, FIXa, FXa, FXIa, FXIIa coated directly on Maxisorp plates at 5–10 µg/mL; anti-APC antibodies at 20 nM. The settings on record: both partners purified. On the technique in general: An ELISA detects its analyte on a solid surface through an enzyme-linked reagent.
Another test concerns the target human FXa (Homo sapiens, UniProt P00742). Described as above. The settings on record: both partners purified.
In the next test the target is human FXIa (Homo sapiens, UniProt P03951). The test is described as above. The conditions noted are these: both partners purified.
In a further test the target is human FVIIa (Homo sapiens, UniProt P08709). The description is as above. The settings on record: both partners purified.
The target of another test is human FXIIa (Homo sapiens, UniProt P00748). The description is as above. The settings on record: both partners purified.
The next test concerns the target T2, human FIIa (Homo sapiens, UniProt P00734).
T2 construct: human FIIa (thrombin), light chain; human FIIa (thrombin), heavy (catalytic) chain; also called thrombin
Described as above. The settings on record: both partners purified.

The target in test [2] is T1, monkey activated protein C. Briefly: ELISA; data not shown; species cross-reactivity; species' APC or PC coated directly on Maxisorp plates at 100 ng/well in PBS/Ca2+; antibodies titrated. The settings on record: both partners purified.
Test [3] addresses T3, rabbit activated protein C (Oryctolagus cuniculus, UniProt Q28661).
T3 construct: also called rabbit APC
The description is as above. The conditions noted are these: both partners purified.

Another test deals with T4, dog activated protein C (Canis lupus familiaris, UniProt Q28278).
T4 construct: also called dog APC
The description is as above. The conditions noted are these: both partners purified.

The target of test [4] is T5, plasma-derived hAPC-Gla-domainless (APC-GD) (Homo sapiens, UniProt P04070).
T5 construct: also called APC (in the crystal structures); source: bought: plasma-derived, Enzyme Research Laboratories
Briefly: ELISA; APC-binding ELISA of the purified Fabs on human APC and Gla-domainless APC; format not told. The conditions noted are these: both partners purified.

For test [5], the target named is T6, human activated protein C (Homo sapiens).
T6 chain 1: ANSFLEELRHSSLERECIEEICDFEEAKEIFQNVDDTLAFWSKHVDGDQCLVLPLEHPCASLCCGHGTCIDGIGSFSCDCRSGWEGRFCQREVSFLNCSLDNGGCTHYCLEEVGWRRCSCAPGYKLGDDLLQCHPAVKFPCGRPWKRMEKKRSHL
T6 chain 2: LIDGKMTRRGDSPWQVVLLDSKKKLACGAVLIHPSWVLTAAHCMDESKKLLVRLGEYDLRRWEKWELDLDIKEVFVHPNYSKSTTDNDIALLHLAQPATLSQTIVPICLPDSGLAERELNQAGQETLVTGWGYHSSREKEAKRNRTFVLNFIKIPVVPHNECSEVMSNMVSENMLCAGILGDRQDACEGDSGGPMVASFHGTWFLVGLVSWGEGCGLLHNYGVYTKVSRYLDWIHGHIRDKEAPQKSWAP
In words: cell-based or functional assay.

Test [6] deals with T6, human activated protein C. Briefly: ELISA; hAPC or hPC coated directly on Maxisorp plates at 100 ng/well in PBS/Ca2+; antibodies titrated, 1 h at RT; detection with HRP anti-human Fc. The settings on record: both partners purified.
The target in test [7] is T7, Phe–Pro–Arg–chloromethylketone active-site-blocked APC (PPACK-hAPC) (Homo sapiens, UniProt P04070, active site blocked by Phe–Pro–Arg–chloromethylketone (PPACK)).
T7 construct: also called PPACK-APC
In words: ELISA; PPACK-hAPC or hAPC coated onto a MaxiSorp plate at 100 ng per well overnight; IgG or Fab at concentrations starting at 20 nM. The settings on record: both partners purified.

In test [8] the target is T8, human protein C (zymogen) (Homo sapiens, UniProt P04070).
T8 construct: human protein C zymogen, light chain; also called hPC; PC; source: bought: plasma-derived, Enzyme Research Laboratories
In words: SPR; Biacore T200, 25 °C, HBS-P+ (10 mM HEPES pH 7.4, 150 mM NaCl, 0.05% P20) with 1 mg/mL BSA; mAbs captured by immobilised mouse anti-human Fc antibody on CM5; hAPC injected at 1.56-200 nM, hPC at 1.56-1000 nM; 1:1 Langmuir fit. The conditions noted are these: both partners purified.

Test [9] addresses T6, human activated protein C. Described as above. The conditions noted are these: both partners purified.
For test [10], the target named is T9, monkey protein C (zymogen) (Macaca sp. (monkey plasma, species not …, UniProt A0A1D5QSH6)).
T9 construct: monkey protein C zymogen, light chain; also called monkey PC
Briefly: ELISA; data not shown; species cross-reactivity; species' APC or PC coated directly on Maxisorp plates at 100 ng/well in PBS/Ca2+; antibodies titrated. The settings on record: both partners purified.

The EC50 is the concentration that produces a half-maximal response. Usually Kd stands for the free concentration of one partner at which half of the binding sites on the other are occupied at equilibrium, for simple one-to-one binding.

B1: type I anti-APC mAb TPP-2312 (BAY1316786) (antibody, V domains shown)
VH: EVQLLESGGGLVQPGGSLRLSCAASGFTFSSYWMSWVRQAPGKGLEWVSGVSWNGARTHYADSVKGRFTISRDNSKNTLYLQMNSLRAEDTAVYYCALTGRSGWMRFPNWFDPWGQGTLVTVSS
VL: QSVLTQPPSVSGAPGQRVTISCTGSSSNIGAAYDVHWYQQLPGTAPKLLIYGNNKRPSGVPDRFSGSKSGTSASLAITGLQAEDEADYYCQSYDSSLSGSVFGGGTKLTVL
notes: variable region as the heavy chain of C25K23 with S56A in CDR2, joined to the hIgG2 constant region (CH1-CH2-CH3); as the light chain of C25K23 with K55R in CDR2; hIgG2; Candidate C25K23 was germlined and optimized to become TPP-2312; also called type I mAb; source: HEK293-6E, transiently co-transfected (pTT5), purified (protein A, SEC)
Consider B1, for which, in test [1], the “Protac-aPTT in FVIII-antibody-induced hemophilia A monkey plasma, inhibition of APC anticoagulant activity, IC50” value was determined as 9.3 nM. Besides, the binding result in the test with human FIXa, with human FXa, with human FXIa, in the test with human FVIIa, in the test with human FXIIa and with human FIIa was “no binding (tested: 20 nM)” throughout. Moreover, the EC50 (in test [2]; in [3]; with dog activated protein C) was roughly 1 nM in each case.

B2: C25K23Fab (type I Fab, TTP-2781) (Fab, V domains shown)
VH: EVQLLESGGGLVQPGGSLRLSCAASGFTFSSYWMSWVRQAPGKGLEWVSGVSWNGSRTHYADSVKGRFTISRDNSKNTLYLQMNSLRAEDTAVYYCALTGRSGWMRFPNWFDPWGQGTLVTVTS
VL: QSVLTQPPSASGTPGQRVTISCTGSSSNIGAAYDVHWYQQLPGTAPKLLIYGNNKRPSGVPDRFSGSKSGTSASLAISGLRSEDEADYYCQSYDSSLSGSVFGGGTKLTVL
notes: Parent of TPP-2312; also called type I (C25K23) Fab; source: E. coli, purified (Protein A chromatography)
In test [4], B2 returned an EC50 of 2 to 4 nM.

B3: type II anti-APC mAb TPP-4885 (BAY1896502) (antibody, V domains shown)
VH: EVQLVESGGGLVQPGGSLRLSCAASGFTFSNYYLNWVRQAPGKGLEWVGDIRLKSNNYEKHYAESVKGRFTISRDDSKNSLYLQMNSLKTEDTAVYYCAREGDYFDYWGQGTLVTVSS
VL: DIVLTQSPASLAVSPGQRATITCKASESVDSFGATFMHWYQQKPGQPPKLLIYLASNLESGVPARFSGSGSGTDFTLTINPVEADDTANYYCQQNNEDPYTFGQGTKLEIK
notes: humanized/optimized from mouse HAPC1573; variable region from the Fab joined to the hIgG2 constant region (CH1-CH2-CH3); humanized/optimized from mouse HAPC1573 (kappa); hIgG2; Derived from HAPC1573 (mIgG1/k) by humanization and optimization; also called type II mAb; BAY 1896052; source: HEK293-6E, transiently co-transfected (pTT5), purified (protein A, SEC)
With B3, in test [1], the “Protac-aPTT in FVIII-antibody-induced hemophilia A monkey plasma, inhibition of APC anticoagulant activity, IC50” value was 19.3 nM. Also, the “Protac-aPTT in FVIII-antibody-treated normal human plasma, IC50” value in [5] came out at 12 nM. For the same molecule, the “Protac-aPTT in hemophilia A plasma, inhibition of APC activity, IC50” value in [5] worked out at 11.6 nM. Moreover, the “Protac-aPTT in normal human plasma, inhibition of APC anticoagulant activity, IC50” value in test [5] was roughly 7 nM. Moreover, the EC50 is 0.8 nM in test [6] and roughly 1 nM in test [2]. The binding result in test [7] is “binds”; with human FIXa, “no binding (tested: 20 nM)”; with human FXa, “no binding (tested: 20 nM)”; with human FXIa, “no binding (tested: 20 nM)”; with human FVIIa, “no binding (tested: 20 nM)”; with human FXIIa, “no binding (tested: 20 nM)”. The binding result with human FIIa is “no binding (tested: 20 nM)”; in test [8], “no binding (tested: 1000 nM)”; in [3] it was “no binding”; in test [10], “no binding”; with dog activated protein C, “no binding”. Moreover, in test [9], the Kd came out at 10 nM.

B4: hu1573Fab (type II Fab, TPP-5040) (Fab, V domains shown)
VH: EVQLVESGGGLVQPGGSLRLSCAASGFTFSNYYLNWVRQAPGKGLEWVGDIRLKSNNYEKHYAESVKGRFTISRDDSKNSLYLQMNSLKTEDTAVYYCAREGDYFDYWGQGTLVTVSS
VL: DIVLTQSPASLAVSPGQRATITCKASESVDSFGATFMHWYQQKPGQPPKLLIYLASNLESGVPARFSGSGSGTDFTLTINPVEADDTANYYCQQNNEDPYTFGQGTKLEIK
notes: Humanized Fab of mouse HAPC1573; also called h1573Fab; type II (h1573) Fab; source: QMCF cells (CHO-based), transiently transfected (pTT5), purified from conditioned medium (KappaSelect, SEC)
For the molecule B4, the binding result in test [7] is reported as “binds”.
